Residue numbers refer to the chain shown, from its start. Names and notes keep the numbering of the source.
B1: Vector KRE sCD59-6xHis wild-type (protein)
chain: MGIQGGSVLFGLLLVLAVFCHSGHSLQCYNCPNPTADCKTAVNCSSDFDACLITKAGLQVYNKCWKFEHCNFNDVTTRLRENELTYYCCKKDLCNFNEQLENHHHHHH
B2: Vector KRM vsCD59 K38R-6xHis (protein)
chain: B1 chain with K63R
B3: Vector MTC sCD59 T51G-6xHis (protein)
chain: B1 chain with T76G
B4: Vector MTE sCD59 S20G,T51G-6xHis (protein)
chain: B1 chain with S45G, T76G
B5: Vector KRG vsCD59 N18Q-6xHis (protein)
chain: B1 chain with N43Q
B6: Vector MTA sCD59 S20G-6xHis (protein)
chain: B1 chain with S45G
B7: sCD59 wild-type, in-house purified (protein)
chain: MGIQGGSVLFGLLLVLAVFCHSGHSLQCYNCPNPTADCKTAVNCSSDFDACLITKAGLQVYNKCWKFEHCNFNDVTTRLRENELTYYCCKKDLCNFNEQLEN
B8: sCD59 (His)10 wild-type, commercial (protein)
chain: LQCYNCPNPTADCKTAVNCSSDFDACLITKAGLQVYNKCWKFEHCNFNDVTTRLRENELTYYCCKKDLCNFNEQLEN

The binders below were run against C9 (human, UniProt P02748) (assay: other (MSD ECL)).
Chain of C9 (P02748 22-559): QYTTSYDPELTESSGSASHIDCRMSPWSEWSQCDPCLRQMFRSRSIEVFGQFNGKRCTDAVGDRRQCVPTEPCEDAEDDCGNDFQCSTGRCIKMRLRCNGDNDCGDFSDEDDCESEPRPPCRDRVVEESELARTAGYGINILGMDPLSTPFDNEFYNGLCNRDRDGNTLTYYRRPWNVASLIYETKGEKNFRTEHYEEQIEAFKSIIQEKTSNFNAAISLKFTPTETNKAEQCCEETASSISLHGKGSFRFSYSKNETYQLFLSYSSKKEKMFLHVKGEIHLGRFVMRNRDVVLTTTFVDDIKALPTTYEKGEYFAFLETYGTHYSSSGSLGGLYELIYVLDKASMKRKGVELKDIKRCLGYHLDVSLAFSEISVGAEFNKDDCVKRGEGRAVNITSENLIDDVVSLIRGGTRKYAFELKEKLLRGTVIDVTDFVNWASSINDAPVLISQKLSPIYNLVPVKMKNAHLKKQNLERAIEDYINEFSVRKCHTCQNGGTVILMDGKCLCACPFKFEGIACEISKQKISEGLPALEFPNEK

| Binder | Kd [nM] |
| --- | --- |
| B1 | 34.3 |
| B2 | 39 |
| B3 | 23.7 |
| B4 | 28.9 |
| B5 | 16 |
| B6 | 46.1 |
| B7 | 38.6 |
| B8 | 33.1 |
